# The RNAGym collection of RNA variant scans (doi:10.7554/elife.90254)
# B1: LINE1-full (parent)
# chain: UACGUAGGUGGUUUUCCCCUGAUAGUGCUAAGGGGGCCUGGAAGUUUGGACUGGGCAGAGCUCAACACAGCGUGGCAAAGUGGCUGUGGCUAGACUGCCUCUCUGGAUUCCUCGUCACUCAGCAGGGCAUCUCUGAGAGAAAUGCC
# Variants of: B1
# Test: self-cleavage, relative activity (ratio to wild type); higher = more cleavage; in vitro, sequencing; the parent is a self-cleaving ribozyme
row,Variant,self-cleavage
1,UACGUAGGUGGUUUUCCCCUGAUAGUGCUAAGGGGGCCUGGAAGUUUGGACUGGGCAGAGCUUAACACAGCGUGGCAAAGUGGCUGUGGCUAGACUGCCUCCCUGGAUUCCUCGUCACUCAGCAGGGCAUCUCUGAGAGAAAUGCC [C63U U102C],0.28
2,UACGUAGGUGGUUUUCCCCUGAUAGUGCUAAGGGGGCCUGGAAGUUUGGACUGGGCAGAGCUUAACACAGCGUGGCAAAGUGGCUGUGGCUAGACUGCCUCACUGGAUUCCUCGUCACUCAGCAGGGCAUCUCUGAGAGAAAUGCC [C63U U102A],0.33
3,UACGUAGGUGGUUUUCCCCUGAUAGUGCUAAGGGGGCCUGGAAGUUUGGACUGGGCAGAGCUUAACACAGCGUAGCAAAGUGGCUGUGGCUAGACUGCCUCUCUGGAUUCCUCGUCACUCAGCAGGGCAUCUCUGAGAGAAAUGCC [C63U G74A],0.22
4,UACGUAGGUGGUUUUCCCCUGAUAGUGCUAAGGGGGCCUGGAAGUUUGGACUGGGCAGAGCUCCACACAGCGUGGCAAAGUGGCUGUGGCUAGACUGCCUCUCUGGAUUCCUCGUCACUCAGCAGGGCAUCUCUGAGAGAAAAGCC [A64C U143A],0.25
5,UACGUAGGUGGUUUUCCCCUGAUAGUGCUAAGGGGGCCUGGAAGUUUGGACUGGGCAGAGCUCCACACAGCGUGGCAAAGUGGCUGUGGCUAGACUGCCUCUCUGGAUUCCUCGUCACUCAGCUGGGCAUCUCUGAGAGAAAUGCC [A64C A124U],0.27
6,UACGUAGGUGGUUUUCCCCUGAUAGUGCUAAGGGGGCCUGGAAGUUUGGACUGGGCAGAGCUCCACACAGCGUGGCAAAGCGGCUGUGGCUAGACUGCCUCUCUGGAUUCCUCGUCACUCAGCAGGGCAUCUCUGAGAGAAAUGCC [A64C U81C],0.38
7,UACGUAGGUGGUUUUCCCCUGAUAGUGCUAAGGGGGCCUGGAAGUUUGGACUGGGCAGAGCUCGACACAGCGUGGCAAAGUGGCUGUGGCUAGACUGCCUCUCUGGAUUCCUCGUCACUCAGCAGGGCAUCUCUGAGAGAAAUGCC [A64G],0.25
8,UACGUAGGUGGUUUUCCCCUGAUAGUGCUAAGGGGGCCUGGAAGUUUGGACUGGGCAGAGCUCCACACAGCGUGGCAAAGUGGCUGUGGCUAGACUGCCUCUCUGGAUUCCUCGUCACUCAGCAGGGCAUCUCUGAGAGAAAUGCC [A64C],0.35
9,UACGUAGGUGGUUUUCCCCUGAUAGUGCUAAGGGGGCCUGGAAGUUUGGACUGGGCAGAGCUUAACACAGCGUGGCAAAGUGGCUGUGGCUAGACUGCCUCUCUGGAUUCCUCGUCACUCAGCAGGGCACCUCUGAGAGAAAUGCC [C63U U130C],0.39
10,UACGUAGGUGGUUUUCCCCUGAUAGUGCUAAGGGGGCCUGGAAGUUUGGACUGGGCAGAGCUCCACACGGCGUGGCAAAGUGGCUGUGGCUAGACUGCCUCUCUGGAUUCCUCGUCACUCAGCAGGGCAUCUCUGAGAGAAAUGCC [A64C A69G],0.35
11,UACGUAGGUGGUUUUCCCCUGAUAGUGCUAAGGGGGCCUGGAAGUUUGGACUGGGCAGAGCUUAACACAGCGUGGCAAAGUGGCUGUGGCUAGACUGCCUCUCCGGAUUCCUCGUCACUCAGCAGGGCAUCUCUGAGAGAAAUGCC [C63U U104C],0.1
12,UACGUAGGUGGUUUUCCCCUGAUAGUGCUAAGGGGGCCUGGAAGUUUGGACUGGGCAGAGCUCCACACAGCGUGGCAAAGUGGCUGUGGCUAGACUGCCCCUCUGGAUUCCUCGUCACUCAGCAGGGCAUCUCUGAGAGAAAUGCC [A64C U100C],0.62
13,UACGUAGGUGGUUUUCCCCUGAUAGUGCUAAGGGGGCCUGGAAGUUUGGACUGGGCAGAGCUCCACACAGCGUGGCAAAGUGGCUGUGGCUAGACUGCCUCUCUGGAUUCCUCGUCACCCAGCAGGGCAUCUCUGAGAGAAAUGCC [A64C U119C],0.35
14,UACGUAGGUGGUUUUCCCCUGAUAGUGCUAAGGGGGCCUGGAAGUUUGGACUGGGCAGAGCUCCACACAGCGUGGCAUAGUGGCUGUGGCUAGACUGCCUCUCUGGAUUCCUCGUCACUCAGCAGGGCAUCUCUGAGAGAAAUGCC [A64C A78U],0.46
15,UACGUAGGUGGUUUUCCCCUGAUAGUGCUAAGGGGGCCUGGAAGUUUGGACUGGGCAGAGCUCCACACAGCGUGGCAAAGUGGCUGUGGCUAGACUGCCUCUCUGGAUUCCUCGUCACUCAGCAGGGCUUCUCUGAGAGAAAUGCC [A64C A129U],0.14
16,UACGUAGGUGGUUUUCCCCUGAUAGUGCUAAGGGGGCCUGGAAGUUUGGACUGGGCAGAGCUCCACACAGCGUGGCAAAGUGGCUGUGGCUAGACUGCCUCUCUGGAUUCCUCGUCACUCAGCAGGGCGUCUCUGAGAGAAAUGCC [A64C A129G],0.51
17,UACGUAGGUGGUUUUCCCCUGAUAGUGCUAAGGGGGCCUGGAAGUUUGGACUGGGCAGAGCUUAACACAGCGUGGCAAAGUGGCUGUGGCUAGACUGCCUCUCUGGAUUCCUCGUCACUCAGUAGGGCAUCUCUGAGAGAAAUGCC [C63U C123U],0.38
18,UACGUAGGUGGUUUUCCCCUGAUAGUGCUAAGGGGGCCUGGAAGUUUGGACUGGGCAGAGCUUAACACAGCGUGGCAAAGUGGCUGUGGCUAGACUGCCUCUCUGGAUUCCUCGCCACUCAGCAGGGCAUCUCUGAGAGAAAUGCC [C63U U115C],0.32
19,UACGUAGGUGGUUUUCCCCUGAUAGUGCUAAGGGGGCCUGGAAGUUUGGACUGGGCAGAGCUUAACACAGCGUGGCAAAGUGGCUGUGGUUAGACUGCCUCUCUGGAUUCCUCGUCACUCAGCAGGGCAUCUCUGAGAGAAAUGCC [C63U C90U],0
